# B1: 2K2A (parent)
# chain: ELREAFRLYDKEGNGYISTDVMREILAELDETLSSEDLDAMIDEIDADGSGTVDFEEFMGVMT
# Variants of: B1
# Test: folding stability dG (cDNA display proteolysis); higher = more stable
# Conditions: PBS, room temperature
row,Variant,folding stability dG [kcal/mol]
1,ELREAFRVYDKEGNGYISTDVMREILAELDETLSSEDLDAMIDEIDADGSGTVDFEEFMGVMT,2.07
2,ELREAFRPYDKEGNGYISTDVMREILAELDETLSSEDLDAMIDEIDADGSGTVDFEEFMGVMT,0.853
3,ELREAFRRYDKEGNGYISTDVMREILAELDETLSSEDLDAMIDEIDADGSGTVDFEEFMGVMT,2.38
4,ELREAFRWYDKEGNGYISTDVMREILAELDETLSSEDLDAMIDEIDADGSGTVDFEEFMGVMT,1.83
5,ELREAFRTYDKEGNGYISTDVMREILAELDETLSSEDLDAMIDEIDADGSGTVDFEEFMGVMT,1.94
6,ELREAFRQYDKEGNGYISTDVMREILAELDETLSSEDLDAMIDEIDADGSGTVDFEEFMGVMT,2.05
7,ELREAFRSYDKEGNGYISTDVMREILAELDETLSSEDLDAMIDEIDADGSGTVDFEEFMGVMT,1.92
8,ELREAFRLYDKRGNGYISTDVMREILAELDETLSSEDLDAMIDEIDADGSGTVDFEEFMGVMT,0.846
9,ELREAFRLYDKPGNGYISTDVMREILAELDETLSSEDLDAMIDEIDADGSGTVDFEEFMGVMT,0.544
10,ELREAFRLYDKYGNGYISTDVMREILAELDETLSSEDLDAMIDEIDADGSGTVDFEEFMGVMT,1.2
11,ELREAFRLYDKAGNGYISTDVMREILAELDETLSSEDLDAMIDEIDADGSGTVDFEEFMGVMT,1.57
12,ELREAFRLYDKSGNGYISTDVMREILAELDETLSSEDLDAMIDEIDADGSGTVDFEEFMGVMT,1.34
13,ELREAFRLYDKTGNGYISTDVMREILAELDETLSSEDLDAMIDEIDADGSGTVDFEEFMGVMT,1.32
14,ELREAFRLYDKCGNGYISTDVMREILAELDETLSSEDLDAMIDEIDADGSGTVDFEEFMGVMT,1.61
15,ELREAFRLYDKKGNGYISTDVMREILAELDETLSSEDLDAMIDEIDADGSGTVDFEEFMGVMT,1.13
16,ELREAFRLYDKNGNGYISTDVMREILAELDETLSSEDLDAMIDEIDADGSGTVDFEEFMGVMT,1.52
17,ELREAFRLYDKHGNGYISTDVMREILAELDETLSSEDLDAMIDEIDADGSGTVDFEEFMGVMT,1.41
18,ELREAFRLYDKIGNGYISTDVMREILAELDETLSSEDLDAMIDEIDADGSGTVDFEEFMGVMT,1.1
19,ELREAFRLYDKQGNGYISTDVMREILAELDETLSSEDLDAMIDEIDADGSGTVDFEEFMGVMT,1.56
20,ELREAFRLYDKFGNGYISTDVMREILAELDETLSSEDLDAMIDEIDADGSGTVDFEEFMGVMT,1.45
21,ELREAFRLYDKMGNGYISTDVMREILAELDETLSSEDLDAMIDEIDADGSGTVDFEEFMGVMT,1.53
22,ELREAFRLYDKVGNGYISTDVMREILAELDETLSSEDLDAMIDEIDADGSGTVDFEEFMGVMT,1.19

row,Variant,folding stability dG [kcal/mol]
1,ELREAFRLYDKDGNGYISTDVMREILAELDETLSSEDLDAMIDEIDADGSGTVDFEEFMGVMT,1.85
2,ELREAFRLYDKLGNGYISTDVMREILAELDETLSSEDLDAMIDEIDADGSGTVDFEEFMGVMT,1.55
3,ELREAFRLYDKGGNGYISTDVMREILAELDETLSSEDLDAMIDEIDADGSGTVDFEEFMGVMT,1.16
4,ELREAFRLYDKWGNGYISTDVMREILAELDETLSSEDLDAMIDEIDADGSGTVDFEEFMGVMT,1.48
5,ELREAFRLYLKEGNGYISTDVMREILAELDETLSSEDLDAMIDEIDADGSGTVDFEEFMGVMT,1.26
6,ELREAFRLYVKEGNGYISTDVMREILAELDETLSSEDLDAMIDEIDADGSGTVDFEEFMGVMT,0.886
7,ELREAFRLYRKEGNGYISTDVMREILAELDETLSSEDLDAMIDEIDADGSGTVDFEEFMGVMT,-0.527
8,ELREAFRLYMKEGNGYISTDVMREILAELDETLSSEDLDAMIDEIDADGSGTVDFEEFMGVMT,1.39
9,ELREAFRLYSKEGNGYISTDVMREILAELDETLSSEDLDAMIDEIDADGSGTVDFEEFMGVMT,0.55
10,ELREAFRLYYKEGNGYISTDVMREILAELDETLSSEDLDAMIDEIDADGSGTVDFEEFMGVMT,1.15
11,ELREAFRLYNKEGNGYISTDVMREILAELDETLSSEDLDAMIDEIDADGSGTVDFEEFMGVMT,-0.227
12,ELREAFRLYHKEGNGYISTDVMREILAELDETLSSEDLDAMIDEIDADGSGTVDFEEFMGVMT,-0.087
13,ELREAFRLYAKEGNGYISTDVMREILAELDETLSSEDLDAMIDEIDADGSGTVDFEEFMGVMT,0.874
14,ELREAFRLYEKEGNGYISTDVMREILAELDETLSSEDLDAMIDEIDADGSGTVDFEEFMGVMT,0.386
15,ELREAFRLYCKEGNGYISTDVMREILAELDETLSSEDLDAMIDEIDADGSGTVDFEEFMGVMT,2.18
16,ELREAFRLYQKEGNGYISTDVMREILAELDETLSSEDLDAMIDEIDADGSGTVDFEEFMGVMT,0.395
17,ELREAFRLYWKEGNGYISTDVMREILAELDETLSSEDLDAMIDEIDADGSGTVDFEEFMGVMT,1.4
18,ELREAFRLYFKEGNGYISTDVMREILAELDETLSSEDLDAMIDEIDADGSGTVDFEEFMGVMT,1.66
19,ELREAFRLYIKEGNGYISTDVMREILAELDETLSSEDLDAMIDEIDADGSGTVDFEEFMGVMT,1.21
20,ELREAFRLYTKEGNGYISTDVMREILAELDETLSSEDLDAMIDEIDADGSGTVDFEEFMGVMT,0.563
21,ELREAFRLYGKEGNGYISTDVMREILAELDETLSSEDLDAMIDEIDADGSGTVDFEEFMGVMT,0.123

# From the MegaScale stability set (Tsuboyama et al. 2023)
